Data reported in US20220017629A1 (SHANGHAI PHARMAEXPLORER, published 2022).

Tests used:
[1] = target: T1, OX40 (antigen of the competitive ELISA of Example 5) (UniProt P43489 29-214); experiment: competitive ELISA; competitor MEDI0562
T1 sequence (looked up): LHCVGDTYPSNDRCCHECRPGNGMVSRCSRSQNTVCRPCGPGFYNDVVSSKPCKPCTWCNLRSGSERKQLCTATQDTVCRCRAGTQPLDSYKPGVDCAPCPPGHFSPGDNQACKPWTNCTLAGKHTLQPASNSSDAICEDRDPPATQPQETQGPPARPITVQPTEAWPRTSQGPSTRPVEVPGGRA

[2] = target: T1, OX40 (antigen of the competitive ELISA …); experiment: competitive ELISA; competitor MOXR0916
[3] = target: T1, OX40 (antigen of the competitive ELISA …); experiment: competitive ELISA; competitor BMS-986178
[4] = target: T1, OX40 (antigen of the competitive ELISA …); experiment: competitive ELISA; competitor PF-04518600
[5] = target: T2, human-derived OX40, full-length, on cells (human, UniProt P43489 29-277); experiment: FACS on cells expressing human OX40 (CHOK1-hOX40)
T2 construct: whole, on cells; also called hOX40; CHOK1-hOX40
T2 sequence (looked up): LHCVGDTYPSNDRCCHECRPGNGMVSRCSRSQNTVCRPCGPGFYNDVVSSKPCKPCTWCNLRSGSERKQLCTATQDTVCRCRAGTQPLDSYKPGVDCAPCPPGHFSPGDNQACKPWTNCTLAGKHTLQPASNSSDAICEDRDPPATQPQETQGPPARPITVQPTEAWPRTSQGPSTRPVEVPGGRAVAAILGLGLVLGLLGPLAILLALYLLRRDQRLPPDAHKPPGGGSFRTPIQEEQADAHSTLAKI

B1: MAb035 (antibody, IgG1, V domains shown)
VH: QVQLQQSGAELVRPGASVTLSCKASDYTFTDYEMHWVYQTPVHGLEWIGAIDPETGGTAYNQKFKDKAILTADKSSNTAYMELRSLTSEDSAVYFCTKTGYQFDYWGQGTTLTVSS
VL: DIVMTQSQKFMSTSVGDRVSVTCKASQNVGSNVAWYQQKPGQSPKALIYSASYRYSGVPDRFAGSGSGTDFTLTISNVQSEDLADYFCQQYNSHPYTFGGGTKLEIK
percentage of competition [1]: 59% | percentage of competition [2]: 3% | percentage of competition [3]: 90% | percentage of competition [4]: -5%

B2: MAb034 (antibody, IgG1, V domains shown)
VH: EVQLQQSGPVLVKPGASVKMSCKASGYTFTDFYMNWMRQSHGKSLEWIGVIDPYNGNTSYNQKFKGKATLTVDKSSSTAYMELNSLTSEDSAVYYCARGNYYYYAMDYWGQGTSVTVSS
VL: DIVLTQSPASLAVSLGQRATISCRASESVSIHGTHLMYWYQQKPGQPPKLLIYAASNLESGVPARFSGSGSETDFTLNIHPVEEEDAATFFCQQSIEDPPTFGGGTKLEIK
percentage of competition [1]: 13% | percentage of competition [2]: 0% | percentage of competition [3]: 93% | percentage of competition [4]: 5%

B3: MAb047 (antibody, IgG2c, V domains shown)
VH: EVQLVESGGGLVKPGGSLKLSCAASGFTFSDYGMYWIRQAPEKGLEWVAYISNGGSSIYYADTVKGRFTVSRDNAKNTLFLQMTSLRSEDTAIYYCARGGELGFAYWGQGTLVTVSA
VL: DIQMTQSPASLSVSVGETVTITCRASENIYSNLAWYQQKQGKSPQLLVYAAINLVEGVPSRFSGSGSGTQYSLKINSLQSEDFGSYFCQHFWGLPYTFGGGTKLE
percentage of competition [1]: 97% | percentage of competition [2]: -3% | percentage of competition [3]: 0% | percentage of competition [4]: -2%

B4: MAb064 (antibody, IgG2c, V domains shown)
VH: QVQLKESGPGLVAPSQTLSITCSVSGFSLTNYAVSWVRQPPGKGLEWLGVMWGDGNTNYHSTLISRLSISKDNSKSQVFLKLNSLQTDDTATYYCARSSGWYFDVWGTGTTVTVSS
VL: DIQMTQTTPSLSVTLGDRVTIRCRASQDINNYLNWYQQKPDGTVKLLIYYTSESRSGVPSRFSGSGSGTDYSLTISNLEQEDIATYFCQQGYALPPAFGGGTKLEIK
percentage of competition [1]: 96% | percentage of competition [2]: 90% | percentage of competition [3]: 1% | percentage of competition [4]: 4%

B5: MAb041 (antibody, IgG1, V domains shown)
VH: EVQLVESGGGLVKPGGSLKLSCAVSGFTFSNSAMSWVRQTPEKRLEWVATITDGGDYTYYSDNVKGRFTISRDNAKNNLYLQMSHLKSEDTAMYYCVRGISYWGQGTLVTVS
VL: DIVLTQSPASLAVSLGQRATISCRASKSVSTSSDSYMHWYQQKPGQPPKLLIKYASNLESGVPVRFSGSGSGTDFTLNIHPVEEEDAATYYCQHSREFPWTFGGGTKLEIK
percentage of competition [1]: 2% | percentage of competition [2]: 1% | percentage of competition [3]: -6% | percentage of competition [4]: -8%

B6: MAb053 (antibody, IgG2c, V domains shown)
VH: QVQLKQSGPGLVQPSQSLSIICTVSGFSLSDYGVMWVRQSPGKGLEWLGVIWSGGSTDYNAAFTSRLSISRDNSKRQVIFKMNSLQAEDTAIHYCVRETMDYWGQGTSVTVS
VL: DIQMTQTTSSLSASLGDRVTISCRASQDISNYLNWYQQRPDGTVKRLIYYTSRLHSGVPSRFSGSGSGTDYSLTISSLEQEDIATYFCQQAHTLPWTFGGGTKLEIK
percentage of competition [1]: 11% | percentage of competition [2]: -2% | percentage of competition [3]: 2% | percentage of competition [4]: 93%

B7: MAb055 (antibody, IgG1, V domains shown)
VH: QVQLKQSGPGLLQPSQSLSITCTVSGFSLDEYGVHWFRQSPGKGLEWLGVIWSGGSTDYNAAFISRLSIRKDNSKSQIFFNMNSLQADDTAIYYCVREEWEYWGQGTTLTVS
VL: DIQMTQTTSSLSASLGDRVTISCRPSQDIDNYLNWFQQRPDGTIKLLIYYTSRLHSGVPSRFSGSGSGTDYSLTINNLEQEDIATYFCQQAHTLPYTFGGGTKLEIK
percentage of competition [1]: 16% | percentage of competition [2]: -3% | percentage of competition [3]: 3% | percentage of competition [4]: 95%

B8: MAb058 (antibody, IgG1, V domains shown)
VH: EVQLQQSGPVLVKPGAAVKMSCKASGYIFTDYYIHWVKLSRGESLEWIGLINPYNGGTNYNQQFTGKATLTVDKSSSTAYVELNSLTSGDSAVYYCVRRTGYFDYWGQGTTLTVSS
VL: DVVMTQTPLSLPVSLGDQASISCRSSQSLVHSNGNTYLHWYLQKPGQSPKLLIYKVSNRFSGVPDRFSGSGSGTDFTLKISRVEAEDLGVYFCSQTTHVPYTFGGGTKLEIK
percentage of competition [1]: 26% | percentage of competition [2]: -3% | percentage of competition [3]: -4% | percentage of competition [4]: 11%

B9: Humab035-24 (antibody, V domains shown)
VH: QVQLVQSGAEVKKPGASVKVSCKASDYTFTDYEMHWVRQAPGQGLEWIGAIDPETGGTAYNQKFKDRVTMTADTSTSTVYMELSSLRSEDTAVYYCAKTGYQFDYWGQGTTVTVSS
VL: DIQMTQSPSSVSASVGDRVTITCKASQNVGSNVAWYQQKPGKAPKALIYSASYRYSGVPSRFSGSGSGTDFTLTISSLQPEDFATYYCQQYNSHPYTFGQGTKLEIK
binding result [5]: binds

B10: MAb049 (antibody, IgG1, V domains shown)
VH: EVQLQQSGPELVKPGASVKISCKASGHTLTDYYMNWVKQSHGKSPEWIGDINPNNDGIDYNQKFRGKAILTVDKSSSSFYMELRSLTSEDSAVYYCVGFVRGYFVSWGQGTTLTVSS
VL: DIQMTQTTSSLSASLGDRVTINCRASQDISNYLNWYQQKPDGTVKLLIYYTSRLRSGVPSRFSGSGSGTDYSLTINNLDQEDFATYFCQQGNTLPWTFGGGTKLEI
percentage of competition [1]: 97% | percentage of competition [2]: 90% | percentage of competition [3]: 0% | percentage of competition [4]: -2%

B11: MAb033 (antibody, IgG1, V domains shown)
VH: QVQLQQSGAELVRPGTAVRVSCKASGYAFTNYFIEWVKQRPGQGLEWIGVINPGSGDTYYSEKFQGKATLTADKSSSTAYMQLSSLTSEDSAVYFCAREDDYSWFTYWGQGTLVTVSA
VL: DIVLTQSPASLAVSLGQRATISCRASENVDNYGISFMHWYRQKPGQPPKLLIYRASNLESGIPARFSGSGSRTDFTLTINPVETDDVATYYCQQSNKDPYTFGGGTKLEIK
percentage of competition [1]: 7% | percentage of competition [2]: -1% | percentage of competition [3]: 81% | percentage of competition [4]: -7%
